Assay results from US5723436, “Calcineurin interacting protein compositions and methods” (The Board of Trustees of the Leland Stanford Junior …, dated 1998).

B1: GBT-A1 (G4BD-CNA1) (other)
chain: MKLLSSIEQACDICRLKKLKCSKEKPKCAKCLKNNWECRYSPKTKRSPLTRAHLTEVESRLERLEQLFLLIFPREDLDMILKMDSLQDIKALLTGLFVQDNVNKDAVTDRLASVETDMPLTLRQHRISATSSSEESSNKGQRQLTVSMSKDLNSSRIKIIKPNDSYIKVDRKKDLTKYELENGKVISTKDRSYASVPAITGKIPSDEEVFDSKTGLPNHSFLREHFFHEGRLSKEQAIKILNMSTVALSKEPNLLKLKAPITICGDIHGQYYDLLKLFEVGGDPAEIDYLFLGDYVDRGAFSFECLIYLYSLKLNNLGRFWMLRGNHECKHLTSYFTFKNEMLHKYDMEVYDACCRSFNVLPLAALMNGQYFCVHGGISPELKSVEDVNKINRFREIPSRGLMCDLLWADPVENYDDARDGSEFDQSEDEFVPNSLRGCSFAFTFKASCKFLKANGLLSIIRAHEAQDAGYRMYKNNKVTGFPSLITMFSAPNYLDTYHNKAAVLKYEENVMNIRQFHMSPHPYWLPDFMDVFTWSLPFVGEKVTSMLVSILNICSEQELDPESEPKAAEETVKARANATKETGTPSDEKASSAILEDETRRKALRNKILAIAKVSRMFSVLREESEKVEYLKTMNAGVLPRGALARGTEGLNETLSTFEKARKEDLINEKLPPSLSEVEQEKIKYYEKILKGAEKKPQL
B2: GBT-A2 (G4BD-CNA2) (other)
chain: MKLLSSIEQACDICRLKKLKCSKEKPKCAKCLKNNWECRYSPKTKRSPLTRAHLTEVESRLERLEQLFLLIFPREDLDMILKMDSLQDIKALLTGLFVQDNVNKDAVTDRLASVETDMPLTLRQHRISATSSSEESSNKGQRQLTVSMSSDAIRNTEQINAAIKIIENKTERPQSSTTPIDSKASTVAAANSTATETSRDLTQYTLDDGRVVSTNRRIMNKVPAITSHVPTDEELFQPNGIPRHEFLRDHFKREGKLSAAQAARIVTLATELFSKEPNLISVPAPITVCGDIHGQYFDLLKLFEVGGDPATTSYLFLGDYVDRGSFSFECLIYLYSLKLNFNDHFWLLRGNHECKHLTSYFTFKNEMLHKYNLDIYEKCCESFNNLPLAALMNGQYLCVHGGISPELNSLQDINNLNRFREIPSHGLMCDLLWADPIEEYDEVLDKDLTEEDIVNSKTMVPHHGKMAPSRDMFVPNSVRGCSYAFTYRAACHFLQETGLLSIIRAHEAQDAGYRMYKNTKTLGFPSLLTLFSAPNYLDTYNNKAAILKYENNVMNIRQFNMTPHPYWLPDFMDVFTWSLPFVGEKVTEMLVAILNICTEDELENDTPVIEELVGTDKKLPQAGKSEATPQPATSASPKHASILDDEHRRKALRNKILAVAKVSRMYSVLREETNKVQFLKDHNSGVLPRGALSNGVKGLDEALSTFERARKHDLINEKLPPSLDELKNENKKYYEKVWQKVHEHDAKNDSK

Target: GAD (GAL4 activation domain alone, from pGAD) (yeast, UniProt P04386)
Test: yeast GAL4 two-hybrid, fusion tested against the complementary GAL4 domain not fused to a second protein

Binder | binding result
B1 | no binding
B2 | no binding
